Where no end group is shown, it is not given here. The star is where a group is joined. Biotin = O=C1N[C@H]2[C@H](CS[C@H]2CCCCC(=O)*)N1

Consider seven molecules from patent US20090192289A1 (Genentech, published 2009).

The target of experiment [1] is T1, GST-Omi PDZ fusion protein (human, UniProt O43464 359-458).
T1 construct: also called GST-hOmiPDZ; hOmi PDZ domain; not shown: glutathione S-transferase (GST) encoded by plasmid pGEX6P-3
T1 sequence: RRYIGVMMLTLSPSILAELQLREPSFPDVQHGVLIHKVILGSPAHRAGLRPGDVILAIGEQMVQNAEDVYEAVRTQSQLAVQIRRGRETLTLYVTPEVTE
As to the kind of experiment: competition ELISA, immobilized biotin-GWTMFWV. The protocol: (§1) Affinity Assays—The binding affinities of peptides for Omi PDZ were determined as IC₅₀ values using a previously described competition ELISA(18). The IC₅₀ value was defined as the concentration of peptide that blocked 50% of PDZ domain binding to immobilized peptide. Assay plates were prepared by immobilizing an amino-terminally biotinylated peptide (biotin-GWTMFWV) on maxisorp plates coated with NeuTravidin and blocked with BSA. A fixed concentration of GST-Omi PDZ fusion protein (20 nM) in PBS, 0.5% BSA, 0.1% Tween 20 (PBT buffer) was preincubated for 1 h with serial dilutions of peptide and then transferred to the assay plates. After 1 h incubation, the plates were washed with PBS, 0.05% Tween 20, incubated for 30 min with HRP/anti-GST antibody (1:10,000) in PBT buffer, washed again, and detected with 3,3′,5,5′-Tetramethyl-benzidine/H₂O₂ (TMB) peroxidase substrate.
Background: In an ELISA, binding on a coated surface is turned into a signal by an enzyme label.

For experiment [2], the target named is T2, phage-displayed Omi PDZ (phagemid p8hOmi) (human; M13 bacteriophage).
T2 construct: Multivalent display on phage; not shown: M13 gene-8 coat protein
T2 chain: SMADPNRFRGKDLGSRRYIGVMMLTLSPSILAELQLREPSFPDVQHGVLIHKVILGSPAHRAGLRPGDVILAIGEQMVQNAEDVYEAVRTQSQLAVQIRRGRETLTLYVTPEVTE
The experiment can be described thus: phage selection and phage ELISA on NeutrAvidin-immobilized peptide. The protocol:
Library Sorting and Analysis—Phage from the libraries described above were propagated in E. coli XL1-blue with the addition of KO7 helper phage. After overnight growth at 37° C. (for peptide library) or 30° C. (for shotgun library), phage were concentrated by precipitation with PEG/NaCl and resuspended in PBS, 0.5% BSA, 0.1% Tween 20, as described previously(19). Phage solutions (10¹² phage/mL) were added to 96-well maxisorp immunoplates that had been coated with capture target and blocked with BSA. For shotgun library sorting, two different targets were used; for the display selection the target was an immobilized antibody that recognized the epitope tag fused to the N terminus of Omi PDZ, while for the function selection a biotinylated peptide that binds to Omi PDZ with high affinity (biotin-SWTMFWV) was immobilized on NeutrAvidin-coated plates. Following a 2 h incubation to allow for phage binding, the plates were washed 10 times with PBS, 0.05% Tween 20. Bound phage were eluted with 0.1 M HCl for 10 min and the eluent was neutralized with 1.0 M Tris base. Eluted phage were amplified in E. Coli XL1-blue and used for further rounds of selection.
Shotgun alanine-scanning of Omi PDZ domain—By superimposing the structure of Omi PDZ with the structure of Erbin PDZ-ligand complex(20), we identified a region that is directly involved or adjacent to the peptide binding site. […]

The target in experiment [3] is T1, GST-Omi PDZ fusion protein. The experiment can be described thus: competition ELISA, 20 nM GST-Omi PDZ, immobilized biotin-GWTMFWV as competitor. How it is done: as §1
Experiment [4] addresses T1, GST-Omi PDZ fusion protein. As to the kind of experiment: competition ELISA. How it is done: as §1

H-SHWWG-NH2 (also called SHWWG) [hOmi_n1_t4]: in experiment [1], the binding result is given as “no binding”.

B1: biotin-SWTMFWV (peptide)
peptide: Biotin-SWTMFWV
notes: Immobilized on NeutrAvidin-coated plates for shotgun library sorting
For B1, in experiment [2], the binding result was “binds”.

Turning to H-SHWWGG-NH2 (also called SHWWGG) [hOmi_n1_t3], the binding result in experiment [1] was “no binding”.

Regarding H-WWGGWLG-NH2 (also called WWGGWLG) [hOmi_n1_t7], the binding result in experiment [1] was “no binding”.

In general, IC50 refers to the point on the concentration scale where inhibition reaches its midpoint. With Ac-SWTMFWA-OH (also called SWTMFWA) [hOmi_c1_A1], the IC50 in experiment [3] stood at 10.6 µM. Besides, the “fold increase of IC50 vs SWTMFWV (hOmi_c1)” value in experiment [4] stood at 3 fold.

As for H-WGGWLG-NH2 (also called WGGWLG) [hOmi_n1_t8], the binding result in experiment [1] is “no binding”.

B2: PDZ-Opt (peptide)
peptide: Ac-GQYYFV-OH
notes: synthetic peptide, optimized ligand reported previously from a chemically synthesized library; also called GQYYFV
Take B2: in experiment [3], the IC50 came out at 17.6 µM. The “fold lower affinity vs the optimized peptide derived from libC (hOmi_c1)” value in experiment [4] was 5 fold.
